The record followed here is patent publication US10259881 (dated 2019).

Numbering of substitutions follows the chain as printed. Where two headings read alike, the source gives them in different places.

Assay [1] has as its target T1, human CD137 (human, UniProt Q07011). Nature of the assay: SPR. For orientation: In SPR one partner is held on a chip, and binding of the other changes the refractive index at the surface.
Assay [2] addresses T2, murine CD137 (mouse, UniProt P20334).
T2 chain: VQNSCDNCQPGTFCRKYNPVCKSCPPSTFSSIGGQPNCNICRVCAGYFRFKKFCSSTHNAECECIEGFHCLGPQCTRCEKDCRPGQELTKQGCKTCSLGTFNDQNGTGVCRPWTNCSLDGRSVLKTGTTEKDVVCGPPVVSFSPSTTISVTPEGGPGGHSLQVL

In assay [3] the target is T1, human CD137. Nature of the assay: SPR. The source holds these as a separate data set.
The target of assay [4] is T1, human CD137. Nature of the assay: SPR. This is another data set of the same source.
In assay [5] the target is T1, human CD137. Nature of the assay: SPR. This is another data set of the same source.

T1 sequence (Q07011 24-186): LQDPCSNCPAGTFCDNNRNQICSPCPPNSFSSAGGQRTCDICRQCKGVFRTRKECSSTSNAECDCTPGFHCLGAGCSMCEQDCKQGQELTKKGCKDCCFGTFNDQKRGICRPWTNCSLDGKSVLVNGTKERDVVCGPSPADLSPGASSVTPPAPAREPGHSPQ

B1: MSH1 (antibody, V domains shown)
VH: QMQLVQSGAEVKKPGASVKVSCKASGYNFGGYYMHWVRQAPGQGLEWMGWVNPHSGGTNYAQKFQGRVTITRDTSASTAYMELSSLRSEDTAVYYCAREGEAWGLDLDLWGQGTLVTVSS
VL: SYELTQPPSVSVAPGKTARITCGGNNIGSKSVHWYQQKPGQAPVLVIYYDSDRPSGIPERFSGSNSGNTATLTISRVEAGDEADYYCQVWDSSSVVFGGGTQLTVL
One may read the Kd as a measure of binding affinity in units of concentration. A lower Kd goes with tighter binding. B1 yielded a dissociation constant Kd in assay [1] of 87.8 nM.

B2: MB12 (antibody, V domains shown)
VH: B1 VH with N28S, F29L, G30E, V51I, H54N, W103V, L109Y
VL: B1 VL
With B2, in assay [2], the binding result is given as “no binding”. In assay [3], the affinity, expressed as Kd, was 155 nM.

B3: MC8 (antibody, V domains shown)
VH: QMQLVQSGAEVKKPGASVKVSCKASGYMPDGYYMHWVRQAPGQGLEWMGWINPRTGGTNYAQKFQGRVTITRDTSASTAYMELSSLRSEDTAVYYCAREGAAFRLELDAWGQGTLVTVSS
VL: B1 VL
B3 displayed an equilibrium dissociation constant (Kd) in assay [4] of 30.2 nM.

B4: MSA11 (antibody, V domains shown)
VH: B1 VH with N28S, G30T, H54K, E101W, W103R, G104R, L105I, L109E
VL: B1 VL
The molecule B4 showed a Kd in assay [4] of 46.9 nM.

B5: MD4 (antibody, V domains shown)
VH: B3 VH with M28N, P29W, D30T, R54M, T55A, A101W, F103R, R104G, L105V, A109M
VL: B1 VL
With B5, binding in assay [1] was characterised by a dissociation constant (Kd) of 8.9 nM.

B6: MSB7 (antibody, V domains shown)
VH: B1 VH with N28S, G30S, H54M, E101M, W103M, G104R, D106E, L109K
VL: B1 VL
In assay [1], B6 displayed a dissociation constant Kd of 16.6 nM.

B7: MSC8 (antibody, V domains shown)
VH: B1 VH with H54K, W103V, L109Y
VL: B1 VL
In turn, B7 displayed a Kd in assay [5] of 218 nM. For the same molecule, the binding result in assay [2] was “no binding”.

B8: MB3 (antibody, V domains shown)
VH: B1 VH with N28Q, F29M, G30R, V51I, H54N, W103V, L109Y
VL: B1 VL
As to B8, the affinity in assay [5], expressed as Kd, was 229 nM. The binding result in assay [2] is recorded as “no binding”.
